Measurements published in US20110300138A1 (published 2011).

Legend:
[1] = target: T1, thyroid stimulating hormone receptor (full length human TSHR) (human, UniProt P16473 22-764); experiment: competitor ^125I-K1-70 IgG, TSHR coated tubes; 1 µg/mL in HBD
T1 construct: Full length TSHR coated onto plastic tubes (TSHR coated tubes, as in WO2004/050708A2); also called TSH receptor
Procedure: (§1) Binding inhibition assays were carried out using TSHR coated tubes as described in WO2004/050708A2. […] After aspiration, the tubes were washed and 100 μL of ¹²⁵I-labelled protein (5×10⁴ cpm) added and incubated for 1 hour at room temperature with shaking. The tubes were then aspirated, washed and counted in a gamma counter. Inhibition of labelled protein binding was calculated as 100×[1−(cpm bound in the presence of test material/cpm bound in the presence of control material)].

[2] = target: T1, thyroid stimulating hormone receptor …; experiment: competitor ^125I-K1-70 IgG, TSHR coated tubes; 3 µg/mL in HBD
Procedure: as §1

[3] = target: T1, thyroid stimulating hormone receptor …; experiment: competitor ^125I-K1-70 IgG, TSHR coated tubes; 10 µg/mL in HBD
Procedure: as §1

[4] = target: T1, thyroid stimulating hormone receptor …; experiment: competitor ^125I-K1-70 IgG, TSHR coated tubes; 30 µg/mL in HBD
Procedure: as §1

[5] = target: T1, thyroid stimulating hormone receptor …; experiment: competitor ^125I-K1-70 IgG, TSHR coated tubes; 0.1 µg/mL in HBD
Procedure: as §1

[6] = target: T1, thyroid stimulating hormone receptor …; experiment: competitor ^125I-K1-70 IgG, TSHR coated tubes; 0.3 µg/mL in HBD
Procedure: as §1

[7] = target: T1, thyroid stimulating hormone receptor …; experiment: competitor ^125I-K1-70 IgG, TSHR coated tubes; 100 µg/mL in HBD
Procedure: as §1

[8] = target: T1, thyroid stimulating hormone receptor …; experiment: competitor ^125I-K1-70 IgG, TSHR coated tubes; 0.01 µg/mL in HBD
Procedure: as §1

[9] = target: T1, thyroid stimulating hormone receptor …; experiment: competitor ^125I-K1-70 IgG, TSHR coated tubes; 0.03 µg/mL in HBD
Procedure: as §1

[10] = target: T1, thyroid stimulating hormone receptor …; experiment: competitor ^125I-K1-70 IgG, TSHR coated tubes; 0.001 µg/mL in HBD
Procedure: as §1

[11] = target: T1, thyroid stimulating hormone receptor …; experiment: competitor ^125I-K1-70 IgG, TSHR coated tubes; 0.003 µg/mL in HBD
Procedure: as §1

[12] = target: T1, thyroid stimulating hormone receptor …; experiment: competitor ^125I-K1-70 IgG, TSHR coated tubes; 1 µg/mL in assay buffer
Procedure: as §1

[13] = target: T1, thyroid stimulating hormone receptor …; experiment: competitor ^125I-K1-70 IgG, TSHR coated tubes; 3 µg/mL in assay buffer
Procedure: as §1

[14] = target: T1, thyroid stimulating hormone receptor …; experiment: competitor ^125I-K1-70 IgG, TSHR coated tubes; 10 µg/mL in assay buffer
Procedure: as §1

[15] = target: T1, thyroid stimulating hormone receptor …; experiment: competitor ^125I-K1-70 IgG, TSHR coated tubes; 30 µg/mL in assay buffer
Procedure: as §1

[16] = target: T1, thyroid stimulating hormone receptor …; experiment: competitor ^125I-K1-70 IgG, TSHR coated tubes; 0.1 µg/mL in assay buffer
Procedure: as §1

[17] = target: T1, thyroid stimulating hormone receptor …; experiment: competitor ^125I-K1-70 IgG, TSHR coated tubes; 0.3 µg/mL in assay buffer
Procedure: as §1

[18] = target: T1, thyroid stimulating hormone receptor …; experiment: competitor ^125I-K1-70 IgG, TSHR coated tubes; 100 µg/mL in assay buffer
Procedure: as §1

[19] = target: T1, thyroid stimulating hormone receptor …; experiment: competitor ^125I-K1-70 IgG, TSHR coated tubes; 0.01 µg/mL in assay buffer
Procedure: as §1

[20] = target: T1, thyroid stimulating hormone receptor …; experiment: competitor ^125I-K1-70 IgG, TSHR coated tubes; 0.03 µg/mL in assay buffer
Procedure: as §1

[21] = target: T1, thyroid stimulating hormone receptor …; experiment: competitor ^125I-K1-70 IgG, TSHR coated tubes; 0.001 µg/mL in assay buffer
Procedure: as §1

[22] = target: T1, thyroid stimulating hormone receptor …; experiment: competitor ^125I-K1-70 IgG, TSHR coated tubes; 0.003 µg/mL in assay buffer
Procedure: as §1

Binder | Inhibition of binding (%) [1] | Inhibition of binding (%) [2] | Inhibition of binding (%) [3] | Inhibition of binding (%) [4] | Inhibition of binding (%) [5] | Inhibition of binding (%) [6] | Inhibition of binding (%) [7] | Inhibition of binding (%) [8] | Inhibition of binding (%) [9] | Inhibition of binding (%) [10] | Inhibition of binding (%) [11] | Inhibition of binding (%) [12] | Inhibition of binding (%) [13] | Inhibition of binding (%) [14] | Inhibition of binding (%) [15] | Inhibition of binding (%) [16] | Inhibition of binding (%) [17] | Inhibition of binding (%) [18] | Inhibition of binding (%) [19] | Inhibition of binding (%) [20] | also measured
K1-70 IgG (antibody, V domains shown, Human IgG1 lambda purified from hetero-hybridoma supernatant) VH: EVQLVQSGAEVKKPGQSLKISCKASGYSLTDNWIGWVRQKPGKGLEWMGIIYPGDSDTRYSPSFQGQVTISADKSINTAYLQWSSLKASDTAIYYCVGLDWNYNPLRYWGPGTLVTVSS VL: QSVLTQPPSVSAAPGQKVTISCSGSSSDIGSNYVSWYQQFPGTAPKLLIYDNNKRPSAIPDRFSGSKSGTSATLGITGLQTGDEADYYCGTWDSRLGIAVFGGGTQLTVLG | 90.4% | 91.7% | 93.1% | 94.3% | 62.8% | 82.7% | 93.6% | 11.4% | 33.6% | -7.6% | 2.2% | 90.8% | 90.7% | 92.3% | 93.1% | 87.1% | 89.2% | 93.8% | 50.9% | 74.2% | Inhibition of binding (%) [21]: 15.3%; Inhibition of binding (%) [22]: 24%
K1-70 Fab (Fab, V domains shown) VH: EVQLVQSGAEVKKPGQSLKISCKASGYSLTDNWIGWVRQKPGKGLEWMGIIYPGDSDTRYSPSFQGQVTISADKSINTAYLQWSSLKASDTAIYYCVGLDWNYNPLRYWGPGTLVTVSS VL: QSVLTQPPSVSAAPGQKVTISCSGSSSDIGSNYVSWYQQFPGTAPKLLIYDNNKRPSAIPDRFSGSKSGTSATLGITGLQTGDEADYYCGTWDSRLGIAVFGGGTQLTVLG | 89.5% | 90.9% | 90.6% | 91% | 76.5% | 87.3% | 90.8% | 21.6% | 49.6% | -3.6% | 5.6% | 88.3% | 89.4% | 89.8% | 90.7% | 87.5% | 88% | 91.5% | 64.8% | 81.7% | Inhibition of binding (%) [21]: 12.2%; Inhibition of binding (%) [22]: 32.7%
K1-18 IgG (antibody, V domains shown, Human IgG1 kappa purified from hetero-hybridoma supernatant; it is not part of the secreted protein; also called human monoclonal TSHR autoantibody K1-18 (stimulating)) VH: EVQLVQSGAEVKKPGESLKISCKGSGYSFTNYWIGWVRQMPGKGLEWMGIIYPYDSDTRYSPSFEGQVTISADKSIRTAYLHWSSLKASDTAMYYCVRPRDGSYPYDAFDIWGQGTMVTVSS VL: EIVLTQSPGTLSLSPGERATLSCRASQSVSNNYLAWYQQKPGQAPRLLIYGASSRATGIPDRFSGSGSGTDFTLTISRLEPEDFAVYYCQHCGSSLRAFGQGTKVEIKR | 85.8% | 91% | 92.5% | 92.2% | 48.6% | 73.9% | 93.5% | 3.1% | 20% | -3% | -2.7% | 89.6% | 90.5% | 91.8% | 91.2% | 77.9% | 86.4% | 92.9% | 30.2% | 53.9% | Inhibition of binding (%) [21]: 7.2%; Inhibition of binding (%) [22]: 17%
K1-18 Fab (Fab, V domains shown) VH: EVQLVQSGAEVKKPGESLKISCKGSGYSFTNYWIGWVRQMPGKGLEWMGIIYPYDSDTRYSPSFEGQVTISADKSIRTAYLHWSSLKASDTAMYYCVRPRDGSYPYDAFDIWGQGTMVTVSS VL: EIVLTQSPGTLSLSPGERATLSCRASQSVSNNYLAWYQQKPGQAPRLLIYGASSRATGIPDRFSGSGSGTDFTLTISRLEPEDFAVYYCQHCGSSLRAFGQGTKVEIKR | 75.6% | 80.5% | 82% | 83.2% | 38.4% | 60.9% | 83.6% | 1.1% | 10.2% | 0.5% | -3.5% | 78.5% | 79.4% | 81.9% | 83.3% | 62.8% | 71.4% | 86% | 23.7% | 31.3% | Inhibition of binding (%) [21]: 13.8%; Inhibition of binding (%) [22]: 15.2%
